Several values for one entry are separate records, joined by “and”; a condition that tells them apart may be missing. Equal entries are not always repeated.

What all share (type): binding
Test [1] in a line: Probe fluorescence ratio response to stearic acid relative to ADIFAB2. To be noted: response relative to ADIFAB2. An excerpt: (§1) In an alternate preferred embodiment, the protein is rI-FABP that has Ala substituted for Leu at position 72 (rI-FABP-L72A) with the resulting probe named ADIFAB2. […] Other probes useful in embodiments of the invention are shown in Tables 1-6 and are also described in U.S. application Ser. No. 11/085,792, filed Mar. 21, 2005 which is incorporated herein by reference. The indicated substitutions are with reference to the ADIFAB protein of SEQ ID NO: 2.
(§2) ADIFAB2 also has an altered spectral response, making it especially useful for measurements of FFAu in blood samples (Apple et al, Clinical Proteomics, (2004) 1:41-44, U.S. patent application Ser. No. 10/670,958). The wavelengths at the maximum intensities emitted by these fluorescently-labeled I-FABP's in the absence of FFA is about 420 to 480 nm. The emission wavelengths at the maximum intensities emitted by these fluorescently-labeled I-FABP's with FFA bound are between about 495 to 580 nm. Experiments typically involve measuring the fluorescence response within both emission maxima or at wavelengths for which the effect of interfering molecules such as hemoglobin can be eliminated as described in U.S. application Ser. No. 10/670958 and PCT/US2004/030521 and the calculation of the ratio ‘R’ of the two fluorescence intensities. The baseline value for this ratio, measured in the absence of analyte, is designated R0.
(§3) The intensity ratio (“R” value) is determined as follows. The ratio is calculated using the following formula: R=Fλ1/Fλ2 wherein, Fλ1 is the measured fluorescence intensities (intensity of sample with probe present minus intensity of sample without probe present) at wavelength 1 and Fλ2 is the measured fluorescence intensities (intensity of sample with probe present minus intensity of sample without probe present) at wavelength 2. Then, for a given probe, ΔR, the difference in R value between the measurement in the presence of the test compound (agent) and in the absence of the test compound (agent), is calculated as follows: ΔR=R+agent−R0 In some embodiments, the ΔR value may then be compared to some reference, for example, an agent with a known affinity for a given probe, by ΔR/ΔRreference. Measurements of fluorescence intensities are obtained using standard techniques.

Test [2] in a line: Probe fluorescence ratio response to arachidonic acid relative to ADIFAB2. Particulars: for DR/DR AA: arachidonic acid, response relative to ADIFAB2; for ΔR/DRAΔ2 AA: Table 4, Arachidonic acid. In a few lines:
(§4)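 Each fatty acid's response was expressed relative to ADIFAB2, the rI-FABP-L72A probe, as ΔR/ΔRreference. ΔR is the change in the background-corrected two-wavelength intensity ratio R=Fλ1/Fλ2 from its analyte-free baseline R0. Emission was read near about 420-480 nm for unbound and about 495-580 nm for FFA-bound probe.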

Test [3] is described as follows: Probe fluorescence ratio response to palmitoleic acid relative to ADIFAB2. Particulars: response relative to ADIFAB2.
Excerpt: as §1, §2, §3

Test [4] is described as follows: Probe fluorescence ratio response to linoleic acid relative to ADIFAB2. Particulars: for DR/DR LA: response relative to ADIFAB2; for ΔR/DRAΔ2 LA: Table 4. In a few lines: as §4
Test [5] is described as follows: Probe fluorescence ratio response to palmitic acid relative to ADIFAB2. To be noted: for DR/DR PA: response relative to ADIFAB2; for ΔR/DRAΔ2 PA: Table 4. An outline of the steps:
as §4

Test [6] in a line: Probe fluorescence ratio response to oleic acid relative to ADIFAB2. Particulars: for DR/DR OA: response relative to ADIFAB2; for ΔR/DRAΔ2 OA: Table 4. An outline of the steps: as §4
Test [7] is described as follows: Probe fluorescence ratio response to linolenic acid relative to ADIFAB2. To be noted: for DR/DR LNA: response relative to ADIFAB2; for ΔR/DRAΔ2 LNA: Table 4. An outline of the steps:
as §4

B1: 38Y 74F 72A (protein, listed as Rattus norvegicus)
chain: AFDGTWKVDRNENYEKFMEKMGINVVKRKLGAHDNLKYTITQEGNKFTVKESSNFRNIDVVFELGVDFAYSAAFGTELTGTWTMEGNKLVGKFKRVDNGKELIAVREISGNELIQTYTYEGVEAKRIFKKE
modifications: PEPTIDE (1)...(131) wild-type rat intestinal fatty acid binding protein
Consider B1, for which, in test [1], the “DR/DR SA” value came to 0.362. Also, in test [2], the “DR/DR AA” value stood at 0.605. Also, in test [3], the “DR/DR POA” value is recorded as 1.514. In addition, the “DR/DR LA” value in test [4] worked out at 0.926. Moreover, the “DR/DR PA” value in test [5] was found to be 1.397. The “DR/DR OA” value in test [6] came out at 0.646. The “DR/DR LNA” value in test [7] amounted to 1.166.

B2: 18L 73V 72A (protein, listed as Rattus norvegicus)
chain: AFDGTWKVDRNENYEKFLEKMGINVVKRKLGAHDNLKLTITQEGNKFTVKESSNFRNIDVVFELGVDFAYSAVDGTELTGTWTMEGNKLVGKFKRVDNGKELIAVREISGNELIQTYTYEGVEAKRIFKKE
modifications: PEPTIDE (1)...(131) wild-type rat intestinal fatty acid binding protein
For the molecule B2, in test [1], the “DR/DR SA” value was 0.359 and 0.427. In test [2], the “DR/DR AA” value is 0.615 and 0.475.

B3: 73W 74T (protein, listed as Rattus norvegicus)
chain: AFDGTWKVDRNENYEKFMEKMGINVVKRKLGAHDNLKLTITQEGNKFTVKESSNFRNIDVVFELGVDFAYSLWTGTELTGTWTMEGNKLVGKFKRVDNGKELIAVREISGNELIQTYTYEGVEAKRIFKKE
modifications: PEPTIDE (1)...(131) wild-type rat intestinal fatty acid binding protein
For the molecule B3, the “DR/DR SA” value in test [1] was found to be 0.726. Further, the “DR/DR AA” value in test [2] is 1.456. Moreover, the “DR/DR POA” value in test [3] is given as 5.818. Further, the “DR/DR LA” value in test [4] is given as 2.480. For the same molecule, in test [5], the “DR/DR PA” value was 3.883. In addition, the “DR/DR OA” value in test [6] was 1.902. Also, the “DR/DR LNA” value in test [7] came out at 3.286.

B4: 73W 74I (protein, listed as Rattus norvegicus)
chain: AFDGTWKVDRNENYEKFMEKMGINVVKRKLGAHDNLKLTITQEGNKFTVKESSNFRNIDVVFELGVDFAYSLWIGTELTGTWTMEGNKLVGKFKRVDNGKELIAVREISGNELIQTYTYEGVEAKRIFKKE
modifications: PEPTIDE (1)...(131) wild-type rat intestinal fatty acid binding protein
Take B4: the “DR/DR SA” value in test [1] amounted to 0.423. For the same molecule, the “DR/DR AA” value in test [2] stood at 0.757. Further, the “DR/DR POA” value in test [3] is on record as 2.697. In addition, in test [4], the “DR/DR LA” value is given as 1.130. Also, in test [5], the “DR/DR PA” value turned out to be 1.884. Besides, the “DR/DR OA” value in test [6] worked out at 0.912. Also, in test [7], the “DR/DR LNA” value is 1.325.

B5: L1P1C3: FABP probe, substitutions Y14M L72W vs SEQ ID NO: 2 (protein, listed as Rattus norvegicus)
chain: AFDGTWKVDRNENMEKFMEKMGINVVKRKLGAHDNLKLTITQEGNKFTVKESSNFRNIDVVFELGVDFAYSWADGTELTGTWTMEGNKLVGKFKRVDNGKELIAVREISGNELIQTYTYEGVEAKRIFKKE
modifications: PEPTIDE (1)...(131) wild-type rat intestinal fatty acid binding protein
With B5, the “ΔR/DRAΔ2 AA” value in test [2] is −0.9. Further, in test [4], the “ΔR/DRAΔ2 LA” value is given as −1.1. Also, the “ΔR/DRAΔ2 PA” value in test [5] is −0.4. Further, the “ΔR/DRAΔ2 OA” value in test [6] was −1.3. In addition, the “ΔR/DRAΔ2 LNA” value in test [7] is −1.0.

B6: L1P7H4: FABP probe, substitutions Y14I L38M L72W vs SEQ ID NO: 2 (protein, listed as Rattus norvegicus)
chain: AFDGTWKVDRNENIEKFMEKMGINVVKRKLGAHDNLKMTITQEGNKFTVKESSNFRNIDVVFELGVDFAYSWADGTELTGTWTMEGNKLVGKFKRVDNGKELIAVREISGNELIQTYTYEGVEAKRIFKKE
modifications: PEPTIDE (1)...(131) wild-type rat intestinal fatty acid binding protein
On to B6, for which, in test [2], the “ΔR/DRAΔ2 AA” value is recorded as −1.0. Further, the “ΔR/DRAΔ2 LA” value in test [4] was −1.3. In test [5], the “ΔR/DRAΔ2 PA” value is given as −0.6. The “ΔR/DRAΔ2 OA” value in test [6] is recorded as −1.4. Besides, in test [7], the “ΔR/DRAΔ2 LNA” value is recorded as −1.1.

B7: L1P17A1: FABP probe, substitutions Y14I L72W vs SEQ ID NO: 2 (protein, listed as Rattus norvegicus)
chain: AFDGTWKVDRNENIEKFMEKMGINVVKRKLGAHDNLKLTITQEGNKFTVKESSNFRNIDVVFELGVDFAYSWADGTELTGTWTMEGNKLVGKFKRVDNGKELIAVREISGNELIQTYTYEGVEAKRIFKKE
modifications: PEPTIDE (1)...(131) wild-type rat intestinal fatty acid binding protein
B7: the “ΔR/DRAΔ2 AA” value in test [2] is reported as −0.8. Besides, the “ΔR/DRAΔ2 LA” value in test [4] is reported as −1.0. Besides, the “ΔR/DRAΔ2 PA” value in test [5] is listed as −0.4. Moreover, the “ΔR/DRAΔ2 OA” value in test [6] was −1.2. In test [7], the “ΔR/DRAΔ2 LNA” value is given as −0.9.

B8: L1P5A10: FABP probe, substitution Y117A vs SEQ ID NO: 2 (protein, listed as Rattus norvegicus)
chain: AFDGTWKVDRNENYEKFMEKMGINVVKRKLGAHDNLKLTITQEGNKFTVKESSNFRNIDVVFELGVDFAYSLADGTELTGTWTMEGNKLVGKFKRVDNGKELIAVREISGNELIQTATYEGVEAKRIFKKE
modifications: PEPTIDE (1)...(131) wild-type rat intestinal fatty acid binding protein
B8: the “ΔR/DRAΔ2 AA” value in test [2] was found to be 1.5. In addition, the “ΔR/DRAΔ2 LA” value in test [4] came out at 1.2. Also, in test [5], the “ΔR/DRAΔ2 PA” value is recorded as 0.4. Moreover, the “ΔR/DRAΔ2 OA” value in test [6] came out at 1.1. In addition, the “ΔR/DRAΔ2 LNA” value in test [7] turned out to be 0.7.

B9: L1P16G10: FABP probe, substitutions Y14W L72M Y117A vs SEQ ID NO: 2 (protein, listed as Rattus norvegicus)
chain: AFDGTWKVDRNENWEKFMEKMGINVVKRKLGAHDNLKLTITQEGNKFTVKESSNFRNIDVVFELGVDFAYSMADGTELTGTWTMEGNKLVGKFKRVDNGKELIAVREISGNELIQTATYEGVEAKRIFKKE
modifications: PEPTIDE (1)...(131) wild-type rat intestinal fatty acid binding protein
Consider B9, for which the “ΔR/DRAΔ2 AA” value in test [2] turned out to be 0.9. Moreover, in test [4], the “ΔR/DRAΔ2 LA” value is given as 1.1. For the same molecule, in test [5], the “ΔR/DRAΔ2 PA” value is 0.8. Also, the “ΔR/DRAΔ2 OA” value in test [6] is reported as 0.7. Besides, the “ΔR/DRAΔ2 LNA” value in test [7] amounted to 1.3.

B10: L1P8H2: FABP probe, substitutions Y14M L38M L72W vs SEQ ID NO: 2 (protein, listed as Rattus norvegicus)
chain: AFDGTWKVDRNENMEKFMEKMGINVVKRKLGAHDNLKMTITQEGNKFTVKESSNFRNIDVVFELGVDFAYSWADGTELTGTWTMEGNKLVGKFKRVDNGKELIAVREISGNELIQTYTYEGVEAKRIFKKE
modifications: PEPTIDE (1)...(131) wild-type rat intestinal fatty acid binding protein
B10: the “ΔR/DRAΔ2 AA” value in test [2] is given as −1.3. Moreover, the “ΔR/DRAΔ2 LA” value in test [4] is −1.5. Besides, the “ΔR/DRAΔ2 PA” value in test [5] is recorded as −0.6. Moreover, in test [6], the “ΔR/DRAΔ2 OA” value is −1.7. In addition, in test [7], the “ΔR/DRAΔ2 LNA” value is reported as −1.3.

B11: L1P8D4: FABP probe, substitutions Y14M L72M Y117A vs SEQ ID NO: 2 (protein, listed as Rattus norvegicus)
chain: AFDGTWKVDRNENMEKFMEKMGINVVKRKLGAHDNLKLTITQEGNKFTVKESSNFRNIDVVFELGVDFAYSMADGTELTGTWTMEGNKLVGKFKRVDNGKELIAVREISGNELIQTATYEGVEAKRIFKKE
modifications: PEPTIDE (1)...(131) wild-type rat intestinal fatty acid binding protein
For B11, the “ΔR/DRAΔ2 AA” value in test [2] is 1.6. For the same molecule, in test [4], the “ΔR/DRAΔ2 LA” value is 2.0. Further, the “ΔR/DRAΔ2 PA” value in test [5] is recorded as 0.9. Besides, in test [6], the “ΔR/DRAΔ2 OA” value was found to be 1.1. Besides, the “ΔR/DRAΔ2 LNA” value in test [7] was 2.0.

For the origin of these results see patent US20060257938A1, “Method of screening for drugs that block ligand binding to a lipid binding protein” (priority 2005, published 2006).
